According to PMC9813255 (2023):

How the values were obtained:
GST-Htt-110Q = target: T1, GST-Htt-110Q; assay: SPR
T1 chain: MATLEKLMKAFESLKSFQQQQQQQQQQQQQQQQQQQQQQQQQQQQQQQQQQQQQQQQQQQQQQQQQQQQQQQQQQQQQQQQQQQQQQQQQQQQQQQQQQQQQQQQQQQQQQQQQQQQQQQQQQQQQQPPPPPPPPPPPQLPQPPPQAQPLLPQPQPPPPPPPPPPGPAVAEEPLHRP

[1] = target: T2, human fibrillarin (His-tag fusion protein) (human, UniProt P22087 1-321); assay: SPR; PQBP5 analyte, fibrillarin immobilized
T2 chain: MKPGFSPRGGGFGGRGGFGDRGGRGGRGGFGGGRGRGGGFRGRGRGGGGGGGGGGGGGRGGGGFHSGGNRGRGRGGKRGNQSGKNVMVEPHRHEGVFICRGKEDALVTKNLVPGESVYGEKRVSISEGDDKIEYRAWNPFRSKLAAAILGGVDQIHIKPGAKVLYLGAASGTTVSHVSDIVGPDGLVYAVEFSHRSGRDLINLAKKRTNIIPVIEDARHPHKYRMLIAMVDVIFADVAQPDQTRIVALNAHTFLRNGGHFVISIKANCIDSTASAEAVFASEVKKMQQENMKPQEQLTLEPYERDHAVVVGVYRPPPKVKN

[2] = target: human nucleolin (His-tag fusion protein) (human, UniProt P19338 1-710); assay: SPR; PQBP5 analyte, nucleolin immobilized
Chain of human nucleolin (His-tag fusion protein) (P19338 whole entry, the tested form may be a part): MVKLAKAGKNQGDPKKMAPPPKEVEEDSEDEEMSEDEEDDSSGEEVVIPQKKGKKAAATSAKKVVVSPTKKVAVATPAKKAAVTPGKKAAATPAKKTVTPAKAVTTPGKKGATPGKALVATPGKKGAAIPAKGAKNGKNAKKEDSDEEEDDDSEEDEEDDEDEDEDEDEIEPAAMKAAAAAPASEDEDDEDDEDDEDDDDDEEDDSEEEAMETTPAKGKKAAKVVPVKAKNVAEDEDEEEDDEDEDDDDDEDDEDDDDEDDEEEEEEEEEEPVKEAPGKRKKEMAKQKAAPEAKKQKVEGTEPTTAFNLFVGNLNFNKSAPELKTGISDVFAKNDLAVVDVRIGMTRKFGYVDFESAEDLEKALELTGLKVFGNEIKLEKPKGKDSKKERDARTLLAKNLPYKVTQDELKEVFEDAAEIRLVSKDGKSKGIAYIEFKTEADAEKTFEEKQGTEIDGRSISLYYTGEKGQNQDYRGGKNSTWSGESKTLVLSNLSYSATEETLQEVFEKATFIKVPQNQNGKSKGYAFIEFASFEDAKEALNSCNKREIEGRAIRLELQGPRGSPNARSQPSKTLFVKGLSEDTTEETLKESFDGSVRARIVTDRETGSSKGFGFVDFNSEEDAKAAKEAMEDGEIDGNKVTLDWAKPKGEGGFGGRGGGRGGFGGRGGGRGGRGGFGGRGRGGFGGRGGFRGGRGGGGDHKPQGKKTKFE

GST-Atxn1-86Q = target: T3, GST-Atxn1-86Q (UniProt P54253 1-815); assay: SPR
T3 chain: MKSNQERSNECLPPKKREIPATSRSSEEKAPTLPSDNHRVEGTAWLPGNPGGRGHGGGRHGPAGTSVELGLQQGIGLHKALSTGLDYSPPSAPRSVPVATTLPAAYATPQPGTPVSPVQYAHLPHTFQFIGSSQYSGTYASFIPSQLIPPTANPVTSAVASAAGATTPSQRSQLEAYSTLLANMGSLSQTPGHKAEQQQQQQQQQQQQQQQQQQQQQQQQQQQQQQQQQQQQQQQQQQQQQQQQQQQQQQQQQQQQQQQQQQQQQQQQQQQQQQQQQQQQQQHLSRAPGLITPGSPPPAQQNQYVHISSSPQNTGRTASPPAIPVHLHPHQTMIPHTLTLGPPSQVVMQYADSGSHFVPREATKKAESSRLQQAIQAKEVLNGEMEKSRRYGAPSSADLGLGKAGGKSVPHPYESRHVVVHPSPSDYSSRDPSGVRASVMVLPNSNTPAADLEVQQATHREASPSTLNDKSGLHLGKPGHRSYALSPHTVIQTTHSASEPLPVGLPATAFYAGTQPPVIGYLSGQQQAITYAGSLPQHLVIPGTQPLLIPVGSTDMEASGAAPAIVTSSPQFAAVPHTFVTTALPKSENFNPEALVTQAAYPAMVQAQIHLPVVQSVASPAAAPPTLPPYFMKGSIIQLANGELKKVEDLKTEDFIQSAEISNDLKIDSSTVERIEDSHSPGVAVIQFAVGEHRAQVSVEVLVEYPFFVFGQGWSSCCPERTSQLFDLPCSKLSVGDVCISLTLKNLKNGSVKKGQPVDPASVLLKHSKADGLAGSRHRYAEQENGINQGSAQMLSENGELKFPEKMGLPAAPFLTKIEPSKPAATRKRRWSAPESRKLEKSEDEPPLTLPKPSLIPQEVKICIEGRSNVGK

GST-Atxn1-33Q = target: T4, GST-Atxn1-33Q (UniProt P54253 1-815); assay: SPR
T4 chain: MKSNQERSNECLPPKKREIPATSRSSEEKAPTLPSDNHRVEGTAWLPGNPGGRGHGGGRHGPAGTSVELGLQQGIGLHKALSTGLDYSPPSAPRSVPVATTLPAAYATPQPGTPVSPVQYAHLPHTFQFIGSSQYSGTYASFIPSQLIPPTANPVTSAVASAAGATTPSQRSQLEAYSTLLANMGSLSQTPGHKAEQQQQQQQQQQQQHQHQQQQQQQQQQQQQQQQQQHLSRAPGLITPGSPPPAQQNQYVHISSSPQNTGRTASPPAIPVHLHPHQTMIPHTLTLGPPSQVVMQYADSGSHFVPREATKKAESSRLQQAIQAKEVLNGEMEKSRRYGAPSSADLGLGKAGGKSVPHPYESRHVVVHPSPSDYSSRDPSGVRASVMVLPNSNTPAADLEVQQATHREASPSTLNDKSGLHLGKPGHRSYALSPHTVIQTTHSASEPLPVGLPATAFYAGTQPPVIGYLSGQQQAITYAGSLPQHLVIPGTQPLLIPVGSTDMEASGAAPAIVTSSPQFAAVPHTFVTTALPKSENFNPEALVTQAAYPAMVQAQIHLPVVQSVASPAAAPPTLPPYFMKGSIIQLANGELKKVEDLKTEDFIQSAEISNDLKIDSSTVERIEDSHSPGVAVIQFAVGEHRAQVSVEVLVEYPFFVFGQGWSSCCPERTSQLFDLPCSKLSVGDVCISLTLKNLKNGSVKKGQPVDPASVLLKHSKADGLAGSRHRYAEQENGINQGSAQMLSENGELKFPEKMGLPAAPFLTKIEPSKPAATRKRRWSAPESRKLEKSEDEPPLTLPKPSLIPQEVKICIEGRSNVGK

B1: PQBP5-Δ5 (protein)
chain: MQVSSLNEVKIYSLSCGKSLPEWLSDRKKRALQKKDVDVRRRIELIQDFEMPTVCTTIKVSKDGQYILATGTYKPRVRCYDTYQLSLKFERCLDSEVVTFEILSDDYSKIVFLHNDRYIEFHSQSGFYYKTRIPKFGRDFSYHYPSCDLYFVGASSEVYRLNLEQGRYLNPLQTDAAENNVCDINSVHGLFATGTIEGRVECWDPRTRNRVGLLDCALNSVTADSEINSLPTISALKFNGALTMAVGTTTGQVLLYDLRSDKPLLVKDHQYGLPIKSVHFQDSLDLILSADSRIVKMWNKNSGKIFTSLEPEHDLNDVCLYPNSGMLLTANETPKMGIYYIPVLGPAPRWCSFLDNLTEELEENPESTVYDDYKFVTKKDLENLGLTHLIGSPFLRAYMHGFFMDIRLYHKVKLMVNPFAYEEYRKDKIRQKIEETRAQRVQLKKLPKVNKELALKLIEEEEEKQKSTWKKKVKSLPNILT
modifications: Delta number assigned from the order of the constructs in the methods (fifth: 1-481, lacking NUC153); tag omitted. Exon 1 with the polyQ tract (18-38, 21Q) repeated to 110Q, as in the assayed protein name. The plasmid is called 103Q, so the repeat count is ambiguous. GST omitted.
B1 showed a Kd (GST-Htt-110Q) of 0.424 nM.

B2: full-length human PQBP5 (His-tag fusion protein) (natural protein)
chain: MQVSSLNEVKIYSLSCGKSLPEWLSDRKKRALQKKDVDVRRRIELIQDFEMPTVCTTIKVSKDGQYILATGTYKPRVRCYDTYQLSLKFERCLDSEVVTFEILSDDYSKIVFLHNDRYIEFHSQSGFYYKTRIPKFGRDFSYHYPSCDLYFVGASSEVYRLNLEQGRYLNPLQTDAAENNVCDINSVHGLFATGTIEGRVECWDPRTRNRVGLLDCALNSVTADSEINSLPTISALKFNGALTMAVGTTTGQVLLYDLRSDKPLLVKDHQYGLPIKSVHFQDSLDLILSADSRIVKMWNKNSGKIFTSLEPEHDLNDVCLYPNSGMLLTANETPKMGIYYIPVLGPAPRWCSFLDNLTEELEENPESTVYDDYKFVTKKDLENLGLTHLIGSPFLRAYMHGFFMDIRLYHKVKLMVNPFAYEEYRKDKIRQKIEETRAQRVQLKKLPKVNKELALKLIEEEEEKQKSTWKKKVKSLPNILTDDRFKVMFENPDFQVDEESEEFRLLNPLVSKISEKRKKKLRLLEQQELREKEEEEEPEGKPSDAESSESSDDEKAWVEEVRKQRRLLQQEEKVKRQERLKEDQQTVLKPQFYEIKAGEEFRSFKDSATKQKLMNKTLEDRLKIEAKNGTLSVSDTTVGSKQLTFTLKRSEQQKKQQEAEKLHRQERKRLRRSAGHLKSRHKRGRSFH
Binder B2 has a Kd [1] of 745 nM, a Kd [2] of 0.447 nM and a Kd (GST-Atxn1-86Q) of 0.179 nM. It also gave a Kd (GST-Atxn1-33Q) of 0.342 nM.

B3: full-length human PQBP5 (His-tag fusion protein) (natural protein)
chain: B2 chain
modifications: Exon 1 with the polyQ tract (18-38, 21Q) repeated to 110Q, as in the assayed protein name. The plasmid is called 103Q, so the repeat count is ambiguous. GST omitted.
Binder B3 has a Kd (GST-Htt-110Q) of 0.00362 nM.

B4: PQBP5-Δ1 (protein)
chain: TYQLSLKFERCLDSEVVTFEILSDDYSKIVFLHNDRYIEFHSQSGFYYKTRIPKFGRDFSYHYPSCDLYFVGASSEVYRLNLEQGRYLNPLQTDAAENNVCDINSVHGLFATGTIEGRVECWDPRTRNRVGLLDCALNSVTADSEINSLPTISALKFNGALTMAVGTTTGQVLLYDLRSDKPLLVKDHQYGLPIKSVHFQDSLDLILSADSRIVKMWNKNSGKIFTSLEPEHDLNDVCLYPNSGMLLTANETPKMGIYYIPVLGPAPRWCSFLDNLTEELEENPESTVYDDYKFVTKKDLENLGLTHLIGSPFLRAYMHGFFMDIRLYHKVKLMVNPFAYEEYRKDKIRQKIEETRAQRVQLKKLPKVNKELALKLIEEEEEKQKSTWKKKVKSLPNILTDDRFKVMFENPDFQVDEESEEFRLLNPLVSKISEKRKKKLRLLEQQELREKEEEEEPEGKPSDAESSESSDDEKAWVEEVRKQRRLLQQEEKVKRQERLKEDQQTVLKPQFYEIKAGEEFRSFKDSATKQKLMNKTLEDRLKIEAKNGTLSVSDTTVGSKQLTFTLKRSEQQKKQQEAEKLHRQERKRLRRSAGHLKSRHKRGRSFH
modifications: Delta number assigned from the order of the constructs in the methods; initiator Met from the primer and tag omitted.
For B4, the Kd (GST-Atxn1-86Q) was 0.294 nM and the Kd (GST-Atxn1-33Q) was 0.355 nM.

B5: PQBP5-Δ1 (protein)
chain: B4 chain
modifications: Delta number assigned from the order of the constructs in the methods; initiator Met from the primer and tag omitted. Exon 1 with the polyQ tract (18-38, 21Q) repeated to 110Q, as in the assayed protein name. The plasmid is called 103Q, so the repeat count is ambiguous. GST omitted.
Work on B5 yielded a Kd (GST-Htt-110Q) of 2.11 nM.
